Measurements taken from the supplement of paper PMC5998384.

Assays:
HeLa Kyoto [1] = experiment: solubility change mitosis vs G1/S (difference of NP-40 vs SDS log2 ratios) (log2 ratio difference); higher = more soluble in mitosis
HeLa Kyoto [2] = experiment: solubility in G1/S (NP-40 vs SDS abundance) (log2 ratio); higher = more soluble; conditions: cell cycle stage: G1/S
HeLa Kyoto [3] = experiment: melting temperature (median over replicates), in situ; higher = more thermally stable
HeLa Kyoto [4] = experiment: thermal stability score vs G1/S (z-score of summed log2 fold changes over temperatures); higher = more thermally stable than in G1/S
[5] = cell cycle stage: early G1 (4.5 h after nocodazole release)
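Throughout, for melting temperature (median over replicates), in situ: HeLa Kyoto cells synchronized by double thymidine or nocodazole block, proteins quantified by TMT10plex mass spectrometry, three independent biological replicates.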
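Throughout, for solubility change mitosis vs G1/S (difference of NP-40 vs SDS log2 ratios): synchronized HeLa Kyoto cells (double thymidine block for G1/S, nocodazole release for mitosis), protein amounts in NP-40 versus SDS lysates quantified by mass spectrometry, three biological replicates.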
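Throughout, for solubility in G1/S (NP-40 vs SDS abundance): HeLa Kyoto cells arrested at G1/S by double thymidine block, proteins quantified by TMT10plex mass spectrometry in mild NP-40 versus SDS extracts, three biological replicates.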
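Throughout, for thermal stability score vs G1/S (z-score of summed log2 fold changes over temperatures): synchronized HeLa Kyoto cells, proteins quantified by TMT10plex mass spectrometry, three biological replicates, mitosis taken 0.5 h after nocodazole release, G1/S directly after double thymidine block.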

Row | Sequence | solubility change mitosis (log2) (HeLa Kyoto [1]) | solubility in G1/S (log2) (HeLa Kyoto [2]) | melting temperature (HeLa Kyoto [3]; cell cycle stage: G1/S) [°C] | melting temperature (HeLa Kyoto [3]; cell cycle stage: mitosis) [°C] | thermal stability score (HeLa Kyoto [4]; [5]) | thermal stability score (HeLa Kyoto [4]; cell cycle stage: mitosis)
1 | MAQCVQSVQELIPDSFVPCVAALCSDEAERLTRLNHLSFAELLKPFSRLTSEVHMRDPNNQLHVIKNLKIAVSNIVTQPPQPGAIRKLLNDVVSGSQPAEGLVANVITAGDYDLNISATTPWFESYRETFLQSMPALDHEFLNHYLACMLVASSSEAEPVEQFSKLSQEQHRIQHNSDYSYPKWFIPNTLKYYVLLHDVSAGDEQRAESIYEEMKQKYGTQGCYLLKINSRTSNRASDEQIPDPWSQYLQKNSIQNQESYEDGPCTITSNKNSDNNLLSLDGLDNEVKDGLPNNFRAHPLQLEQSSDPSNSIDGPDHLRSASSLHETKKGNTGIIHGACLTLTDHDRIRQFIQEFTFRGLLPHIEKTIRQLNDQLISRKGLSRSLFSATKKWFSGSKVPEKSINDLKNTSGLLYPPEAPELQIRKMADLCFLVQHYDLAYSCYHTAKKDFLNDQAMLYAAGALEMAAVSAFLQPGAPRPYPAHYMDTAIQTYRDICKNMVLAERCVLLSAELLKSQSKYSEAAALLIRLTSEDSDLRSALLLEQAAHCFINMKSPMVRKYAFHMILAGHRFSKAGQKKHALRCYCQAMQVYKGKGWSLAEDHINFTIGRQSYTLRQLDNAVSAFRHILINESKQSAAQQGAFLREYLYVYKNVSQLSPDGPLPQLPLPYINSSATRVFFGHDRRPADGEKQAATHVSLDQEYDSESSQQWRELEEQVVSVVNKGVIPSNFHPTQYCLNSYSDNSRFPLAVVEEPITVEVAFRNPLKVLLLLTDLSLLWKFHPKDFSGKDNEEVKQLVTSEPEMIGAEVISEFLINGEESKVARLKLFPHHIGELHILGVVYNLGTIQGSMTVDGIGALPGCHTGKYSLSMSVRGKQDLEIQGPRLNNTKEEKTSVKYGPDRRLDPIITEEMPLLEVFFIHFPTGLLCGEIRKAYVEFVNVSKCPLTGLKVVSKRPEFFTFGGNTAVLTPLSPSASENCSAYKTVVTDATSVCTALISSASSVDFGIGTGSQPEVIPVPLPDTVLLPGASVQLPMWLRGPDEEGVHEINFLFYYESVKKQPKIRHRILRHTAIICTSRSLNVRATVCRSNSLENEEGRGGNMLVFVDVENTNTSEAGVKEFHIVQVSSSSKHWKLQKSVNLSENKDTKLASREKGKFCFKAIRCEKEEAATQSSEKYTFADIIFGNEQIISSASPCADFFYRSLSSELKKPQAHLPVHTEKQSTEDAVRLIQKCSEVDLNIVILWKAYVVEDSKQLILEGQHHVILRTIGKEAFSYPQKQEPPEMELLKFFRPENITVSSRPSVEQLSSLIKTSLHYPESFNHPFHQKSLCLVPVTLLLSNCSKADVDVIVDLRHKTTSPEALEIHGSFTWLGQTQYKLQLKSQEIHSLQLKACFVHTGVYNLGTPRVFAKLSDQVTVFETSQQNSMPALIIISNV [TRAPPC8] | -0.114 | -0.261 | 51.5 | 49.9 | -0.214 | -0.392
2 | MAQFDTEYQRLEASYSDSPPGEEDLLVHVAEGSKSPWHHIENLDLFFSRVYNLHQKNGFTCMLIGEIFELMQFLFVVAFTTFLVSCVDYDILFANKMVNHSLHPTEPVKVTLPDAFLPAQVCSARIQENGSLITILVIAGVFWIHRLIKFIYNICCYWEIHSFYLHALRIPMSALPYCTWQEVQARIVQTQKEHQICIHKRELTELDIYHRILRFQNYMVALVNKSLLPLRFRLPGLGEAVFFTRGLKYNFELILFWGPGSLFLNEWSLKAEYKRGGQRLELAQRLSNRILWIGIANFLLCPLILIWQILYAFFSYAEVLKREPGALGARCWSLYGRCYLRHFNELEHELQSRLNRGYKPASKYMNCFLSPLLTLLAKNGAFFAGSILAVLIALTIYDEDVLAVEHVLTTVTLLGVTVTVCRSFIPDQHMVFCPEQLLRVILAHIHYMPDHWQGNAHRSQTRDEFAQLFQYKAVFILEELLSPIVTPLILIFCLRPRALEIIDFFRNFTVEVVGVGDTCSFAQMDVRQHGHPQWLSAGQTEASVYQQAEDGKTELSLMHFAITNPGWQPPRESTAFLGFLKEQVQRDGAAASLAQGGLLPENALFTSIQSLQSESEPLSLIANVVAGSSCRGPPLPRDLQGSRHRAEVASALRSFSPLQPGQAPTGRAHSTMTGSGVDARTASSGSSVWEGQLQSLVLSEYASTEMSLHALYMHQLHKQQAQAEPERHVWHRRESDESGESAPDEGGEGARAPQSIPRSASYPCAAPRPGAPETTALHGGFQRRYGGITDPGTVPRVPSHFSRLPLGGWAEDGQSASRHPEPVPEEGSEDELPPQVHKV [ATG9A] | -0.221 | 0.0202 | 52 | 51.8 | -1.02 | -0.681
3 | MAQKPLRLLACGDVEGKFDILFNRVQAIQKKSGNFDLLLCVGNFFGSTQDAEWEEYKTGIKKAPIQTYVLGANNQETVKYFQDADGCELAENITYLGRKGIFTGSSGLQIVYLSGTESLNEPVPGYSFSPKDVSSLRMMLCTTSQFKGVDILLTSPWPKCVGNFGNSSGEVDTKKCGSALVSSLATGLKPRYHFAALEKTYYERLPYRNHIILQENAQHATRFIALANVGNPEKKKYLYAFSIVPMKLMDAAELVKQPPDVTENPYRKSGQEASIGKQILAPVEESACQFFFDLNEKQGRKRSSTGRDSKSSPHPKQPRKPPQPPGPCWFCLASPEVEKHLVVNIGTHCYLALAKGGLSDDHVLILPIGHYQSVVELSAEVVEEVEKYKATLRRFFKSRGKWCVVFERNYKSHHLQLQVIPVPISCSTTDDIKDAFITQAQEQQIELLEIPEHSDIKQIAQPGAAYFYVELDTGEKLFHRIKKNFPLQFGREVLASEAILNVPDKSDWRQCQISKEDEETLARRFRKDFEPYDFTLDD [CWF19L1] | -0.143 | 0.0176 | 50.4 | 50.7 | 0.0624 | 0.97
4 | MAQQQMTSSQKALMLELKSLQEEPVEGFRITLVDESDLYNWEVAIFGPPNTLYEGGYFKAHIKFPIDYPYSPPTFRFLTKMWHPNIYENGDVCISILHPPVDDPQSGELPSERWNPTQNVRTILLSVISLLNEPNTFSPANVDASVMFRKWRDSKGKDKEYAEIIRKQVSATKAEAEKDGVKVPTTLAEYCIKTKVPSNDNSSDLLYDDLYDDDIDDEDEEEEDADCYDDDDSGNEES [UBE2R2] | 0.134 | 0.302 | 51.9 | 52.9 | -2.34 | -0.967
5 | MAQVLRGTVTDFPGFDERADAETLRKAMKGLGTDEESILTLLTSRSNAQRQEISAAFKTLFGRDLLDDLKSELTGKFEKLIVALMKPSRLYDAYELKHALKGAGTNEKVLTEIIASRTPEELRAIKQVYEEEYGSSLEDDVVGDTSGYYQRMLVVLLQANRDPDAGIDEAQVEQDAQALFQAGELKWGTDEEKFITIFGTRSVSHLRKVFDKYMTISGFQIEETIDRETSGNLEQLLLAVVKSIRSIPAYLAETLYYAMKGAGTDDHTLIRVMVSRSEIDLFNIRKEFRKNFATSLYSMIKGDTSGDYKKALLLLCGEDD [ANXA5] | 0.0486 | 0.363 | 49.4 | 49.4 | 5.64 | 5.5
6 | MARAGPAWLLLAIWVVLPSWLSSAKVSSLIERISDPKDLKKLLRTRNNVLVLYSKSEVAAENHLRLLSTVAQAVKGQGTICWVDCGDAESRKLCKKMKVDLSPKDKKVELFHYQDGAFHTEYNRAVTFKSIVAFLKDPKGPPLWEEDPGAKDVVHLDSEKDFRRLLKKEEKPLLIMFYAPWCSMCKRMMPHFQKAATQLRGHAVLAGMNVYSSEFENIKEEYSVRGFPTICYFEKGRFLFQYDNYGSTAEDIVEWLKNPQPPQPQVPETPWADEGGSVYHLTDEDFDQFVKEHSSVLVMFHAPWCGHCKKMKPEFEKAAEALHGEADSSGVLAAVDATVNKALAERFHISEFPTLKYFKNGEKYAVPVLRTKKKFLEWMQNPEAPPPPEPTWEEQQTSVLHLVGDNFRETLKKKKHTLVMFYAPWCPHCKKVIPHFTATADAFKDDRKIACAAVDCVKDKNQDLCQQEAVKGYPTFHYYHYGKFAEKYDSDRTELGFTNYIRALREGDHERLGKKKEEL [PDIA5] | -0.0327 | -0.136 | 53.8 | 54.5 | 2.7 | 2.84
7 | MAREKEMQEFTRSFFRGRPDLSTLTHSIVRRRYLAHSGRSHLEPEEKQALKRLVEEELLKMQVDEAASREDKLDLTKKGKRPPTPCSDPERKRFRFNSESESGSEASSPDYFGPPAKNGVAAEVSPAKEENPRRASKAVEESSDEERQRDLPAQRGEESSEEEEKGYKGKTRKKPVVKKQAPGKASVSRKQAREESEESEAEPVQRTAKKVEGNKGTKSLKESEQESEEEILAQKKEQREEEVEEEEKEEDEEKGDWKPRTRSNGRRKSAREERSCKQKSQAKRLLGDSDSEEEQKEAASSGDDSGRDREPPVQRKSEDRTQLKGGKRLSGSSEDEEDSGKGEPTAKGSRKMARLGSTSGEESDLEREVSDSEAGGGPQGERKNRSSKKSSRKGRTRSSSSSSDGSPEAKGGKAGSGRRGEDHPAVMRLKRYIRACGAHRNYKKLLGSCCSHKERLSILRAELEALGMKGTPSLGKCRALKEQREEAAEVASLDVANIISGSGRPRRRTAWNPLGEAAPPGELYRRTLDSDEERPRPAPPDWSHMRGIISSDGESN [HIRIP3] | 0.398 | 0.0105 | 53 | 52.5 | 0.379 | 0.978
8 | MARELRALLLWGRRLRPLLRAPALAAVPGGKPILCPRRTTAQLGPRRNPAWSLQAGRLFSTQTAEDKEEPLHSIISSTESVQGSTSKHEFQAETKKLLDIVARSLYSEKEVFIRELISNASDALEKLRHKLVSDGQALPEMEIHLQTNAEKGTITIQDTGIGMTQEELVSNLGTIARSGSKAFLDALQNQAEASSKIIGQFGVGFYSAFMVADRVEVYSRSAAPGSLGYQWLSDGSGVFEIAEASGVRTGTKIIIHLKSDCKEFSSEARVRDVVTKYSNFVSFPLYLNGRRMNTLQAIWMMDPKDVREWQHEEFYRYVAQAHDKPRYTLHYKTDAPLNIRSIFYVPDMKPSMFDVSRELGSSVALYSRKVLIQTKATDILPKWLRFIRGVVDSEDIPLNLSRELLQESALIRKLRDVLQQRLIKFFIDQSKKDAEKYAKFFEDYGLFMREGIVTATEQEVKEDIAKLLRYESSALPSGQLTSLSEYASRMRAGTRNIYYLCAPNRHLAEHSPYYEAMKKKDTEVLFCFEQFDELTLLHLREFDKKKLISVETDIVVDHYKEEKFEDRSPAAECLSEKETEELMAWMRNVLGSRVTNVKVTLRLDTHPAMVTVLEMGAARHFLRMQQLAKTQEERAQLLQPTLEINPRHALIKKLNQLRASEPGLAQLLVDQIYENAMIAAGLVDDPRAMVGRLNELLVKALERH [TRAP1] | -0.149 | -0.0668 | 52.8 | 52.7 | 1.66 | -0.668
9 | MARGSAVAWAALGPLLWGCALGLQGGMLYPQESPSRECKELDGLWSFRADFSDNRRRGFEEQWYRRPLWESGPTVDMPVPSSFNDISQDWRLRHFVGWVWYEREVILPERWTQDLRTRVVLRIGSAHSYAIVWVNGVDTLEHEGGYLPFEADISNLVQVGPLPSRLRITIAINNTLTPTTLPPGTIQYLTDTSKYPKGYFVQNTYFDFFNYAGLQRSVLLYTTPTTYIDDITVTTSVEQDSGLVNYQISVKGSNLFKLEVRLLDAENKVVANGTGTQGQLKVPGVSLWWPYLMHERPAYLYSLEVQLTAQTSLGPVSDFYTLPVGIRTVAVTKSQFLINGKPFYFHGVNKHEDADIRGKGFDWPLLVKDFNLLRWLGANAFRTSHYPYAEEVMQMCDRYGIVVIDECPGVGLALPQFFNNVSLHHHMQVMEEVVRRDKNHPAVVMWSVANEPASHLESAGYYLKMVIAHTKSLDPSRPVTFVSNSNYAADKGAPYVDVICLNSYYSWYHDYGHLELIQLQLATQFENWYKKYQKPIIQSEYGAETIAGFHQDPPLMFTEEYQKSLLEQYHLGLDQKRRKYVVGELIWNFADFMTEQSPTRVLGNKKGIFTRQRQPKSAAFLLRERYWKIANETRYPHSVAKSQCLENSLFT [GUSB] | -0.164 | 0.259 | 56.4 | 58 | -0.942 | -0.838
